Assay results from article PMC5030355.

System: RIG-I (recombinant)
Test: filter binding
Conditions: 25 mM Tris-HCl pH 7.5, 150 mM NaCl, 1.5 mM MgCl2, room temperature, filter binding with 600 nM BSA, 30 min, pull-down in lysate with 0.5% Triton X-100

Substance: polyU/UC RNA 2'FdU
- Kd (2'-fluoro-deoxyuridine substituted for U): 29 nM

Substance: polyU/UC RNA canonical
- Kd: 186 nM

Substance: polyU/UC RNA m6A
- Kd (N6-methyladenosine substituted for A): > 1070 nM

Substance: polyU/UC RNA pseudouridine
- Kd (pseudouridine substituted for U): 255 nM
